This passage reports OD 492 nm results from patent US20090311265A1.

Assay [1] has as its target recombinant HA, subtype H7 (A/Netherlands/219/03 (H7N7)) (influenza A virus A/Netherlands/219/03 (H7N7)). Nature of the assay: ELISA, coated HA, IgG 5 µg/ml.
In assay [2] the target is recombinant HA, subtype H9 (A/Hong Kong/1073/99 (H9N2)) (influenza A virus A/Hong Kong/1073/99 (H9N2)). Nature of the assay: ELISA, coated HA, IgG 5 µg/ml. On the technique in general: In an ELISA, binding on a coated surface is turned into a signal by an enzyme label.

B1: CR6329 (antibody, V domains shown)
VH: EVQLVQSGAEVKKPGSSVKVSCKASGGIFRSNSISWVRQAPGQGLEWMGGIFALFGTTDYAQKFQGRVTITADESSTTVYLELSSLTSEDTAVYYCARGSGYTTRNYFDYWGQGTLVTVSS
VL: EIVLTQSPGTLSLSPGERATLSCRASQSVSSNYLGWYQQKPGQAPRLLIYGASSRASGIPDRFSGGGSGTDFTLTISRLEPEDFAVYYCQQYGSSPLTFGGGTKVEIKR
B1: the OD 492 nm in assay [1] came out at 0.17 OD 492 nm; in assay [2], 2.16 OD 492 nm.
